Source: patent US20250073269A1 (CAS LAMVAC GUANGZHOU BIOMEDICAL TECHNOLOGY, published 2025)
Where “and” joins values, the source holds several entries; their conditions need not be identical. Identical values can stand only once.

Tests used:
[1] = target: T1, catenated VAR2CSA recombinant protein AXVB (Plasmodium, isopeptide bond between SpyTag and SpyCatcher (intra- or intermolecular coupling, cyclization and catenation)); assay: ELISA, AXVB coated, 5H4 mAb titrated; single experiment of three (FIG. 10)
T1 construct: also called AXVB protein; AXVB navigator protein
Protocol: (§1) (1) Antigen coating: The AXVB and rVAR2 proteins were diluted to a final concentration of 20 nM with the Na₂CO₃—NaHCO₃ carbonate coating buffer (with a pH of 9.6) which was filtered and sterilized by the 0.22 μm filter membrane, respectively, 100 μL of each protein sample was added to a 96-well Elisa plate (JET BIOFIL, Guangzhou, China, Cat. #FEP101896), with three replicates per protein sample, and the Elisa plate was covered with a sealing film and incubated at 4° C. overnight. […] (2) Antigen blocking: The coating solution in the Elisa plate was removed, the Elisa plate was washed with a PBST solution (1×PBS+0.05% v/v polyoxyethylene sorbitan fatty acid ester, with a pH of 7.2-7.4) three times, the liquid was patted dry, 200 μL of PBST solution containing 5% BSA was added, and the Elisa plate was then incubated at room temperature for 2 hours. […] (3) Primary antibody incubation: The antigen blocking solution was removed, the Elisa plate was washed with the PBST solution three times, and 100 μL of 5H4 mAb at different concentrations which was diluted with an antibody dilution solution (1×PBS containing 0.1% BSA) in different ratios was added to each well.

[2] = target: T1, catenated VAR2CSA recombinant protein …; assay: ELISA, AXVB coated, 5H4 mAb titrated; single experiment of three
Protocol: as §1

[3] = target: T2, wild-type VAR2CSA recombinant protein (rVAR2) (Plasmodium); assay: ELISA, rVAR2 coated, 5H4 mAb titrated; single experiment of three (FIG. 11)
T2 construct: Monomer of about 73.1 kDa including the tag, with no intra- or intermolecular coupling; Prepared as in CN110325551B; also called rVAR2 protein; monomeric VAR2CSA recombinant protein
T2 chain: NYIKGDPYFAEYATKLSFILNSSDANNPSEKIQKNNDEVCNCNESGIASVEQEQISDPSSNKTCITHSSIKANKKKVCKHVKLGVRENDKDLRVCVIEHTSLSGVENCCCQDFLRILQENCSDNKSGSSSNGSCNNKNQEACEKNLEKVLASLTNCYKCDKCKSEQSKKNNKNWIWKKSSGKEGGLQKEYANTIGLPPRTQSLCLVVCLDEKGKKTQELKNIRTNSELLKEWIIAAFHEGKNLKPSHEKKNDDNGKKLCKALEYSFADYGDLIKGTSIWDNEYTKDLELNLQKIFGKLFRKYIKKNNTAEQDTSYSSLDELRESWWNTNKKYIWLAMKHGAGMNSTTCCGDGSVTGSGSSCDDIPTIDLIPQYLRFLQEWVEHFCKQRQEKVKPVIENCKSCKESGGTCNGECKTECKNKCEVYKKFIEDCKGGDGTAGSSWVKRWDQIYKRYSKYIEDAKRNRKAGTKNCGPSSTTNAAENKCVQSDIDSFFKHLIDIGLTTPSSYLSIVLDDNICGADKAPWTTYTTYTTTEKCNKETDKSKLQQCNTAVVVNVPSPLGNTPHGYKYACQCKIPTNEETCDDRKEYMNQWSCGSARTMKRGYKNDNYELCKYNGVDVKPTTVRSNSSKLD
Protocol: as §1

[4] = target: T2, wild-type VAR2CSA recombinant protein …; assay: ELISA, rVAR2 coated at 20 nM, 5H4 mAb titrated, non-linear regression; mean of three experiments
[5] = target: T1, catenated VAR2CSA recombinant protein …; assay: ELISA, AXVB coated at 20 nM, 5H4 mAb titrated, non-linear regression; mean of three experiments
[6] = target: T2, wild-type VAR2CSA recombinant protein …; assay: ELISA, rVAR2 coated, 5H4 mAb titrated; single experiment of three
Protocol: as §1

B1: monoclonal antibody 5H4 (5H4 mAb) (antibody, V domains shown)
VH: EVKLVESGGGLVKPGGSLKLSCAASGFTFSNYAMSWVRQSPERRLEWVAEISITGRYTYYPDTVTGRFTISRDNAKNTLYLEMSSLRSEDTAMYYCTREGYDYAPSWFAYWGQGTLVTVSA
VL: DVVMTQTPLSLPVSLGDQASISCRSGQTLVHRNGITYLEWYLQKPGQSPKLLIYKVSNRFSGVPDRFSGSGSGTDFTLKISRVEAEDLGIYYCFQGSHVPRTFGGGTKLEIK
notes: Mouse monoclonal antibody, detected with anti-mouse IgG; also called mouse anti-rVAR2 protein monoclonal antibody 5H4 mAb
B1 was tested, and the Kd [1] was 77.8 nM, the Kd [2] was 73 nM and 100 nM and the Kd [3] was 136 nM. The Kd [4] was 144 nM, the Kd [5] was 83.7 nM and the Kd [6] was 123 nM and 174 nM.
